Literature values as cited in PMC3784502.

Molecular target: APC 15-aa repeat region (Homo sapiens) (UniProt P25054)
UniProt P25054, sequence (P25054 1020-1169): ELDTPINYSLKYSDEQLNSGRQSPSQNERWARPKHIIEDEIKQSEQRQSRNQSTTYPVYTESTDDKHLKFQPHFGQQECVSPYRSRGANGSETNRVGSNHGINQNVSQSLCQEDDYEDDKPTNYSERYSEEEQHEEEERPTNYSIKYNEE

- Kd: 273 nM
Substance: β-catenin ARM repeats 5-9 (from UniProt P35222)
